Experiments:
[1] = target: T1, Shaker Kv1.1 channels (ShB-IR) (Drosophila melanogaster, UniProt P08510, DEL6-46); settings: read-out: reported Ki for inhibition of Shaker channels; cited from earlier work
T1 construct: expressed in transfected cells; host or cells: Xenopus oocytes injected with cRNA

[2] = target: T1, Shaker Kv1.1 channels (ShB-IR); test: ShB-IR K+ currents in oocytes, two-electrode voltage clamp; format: cell-based; settings: 24 nM recombinant ChTx
Description: For ShB-IR, holding potential was −90 mV. Leak subtraction used a P/4 protocol with a conditioning pulse to −120 mV. Voltage was stepped from −100 mV post-train to potentials ranging from −40 to 0 mV in 10 mV increments.
Adult female Xenopus were obtained from Xenopus One (Ann Arbor, Mich.). […] For experiments with ShB-IR, oocytes were injected with 0.06-1 ng cRNA. Leak currents were subtracted using a P/4 protocol; corrected traces are shown.
For these experiments, the ShB variant was used with inactivation-removed (ShB-IR).

T1 sequence (P08510 with tags, fused parts or gaps DEL6-46): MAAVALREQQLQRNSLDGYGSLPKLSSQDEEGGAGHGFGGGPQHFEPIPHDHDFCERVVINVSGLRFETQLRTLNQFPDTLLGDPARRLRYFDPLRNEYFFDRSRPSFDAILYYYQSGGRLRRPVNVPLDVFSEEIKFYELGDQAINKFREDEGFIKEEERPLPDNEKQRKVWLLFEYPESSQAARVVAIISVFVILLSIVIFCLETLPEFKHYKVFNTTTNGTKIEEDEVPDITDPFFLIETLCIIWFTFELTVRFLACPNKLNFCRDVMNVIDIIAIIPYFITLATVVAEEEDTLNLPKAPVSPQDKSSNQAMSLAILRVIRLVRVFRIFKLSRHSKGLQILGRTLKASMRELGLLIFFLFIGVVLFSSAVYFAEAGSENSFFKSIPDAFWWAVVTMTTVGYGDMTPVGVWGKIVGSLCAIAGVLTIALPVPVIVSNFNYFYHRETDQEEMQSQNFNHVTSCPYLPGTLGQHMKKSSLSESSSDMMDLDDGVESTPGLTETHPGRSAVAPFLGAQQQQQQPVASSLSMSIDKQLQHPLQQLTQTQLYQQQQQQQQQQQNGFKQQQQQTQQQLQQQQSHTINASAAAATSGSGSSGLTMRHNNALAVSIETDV

In the case of charybdotoxin [ChTx], the Ki [1] is listed as ~200 nM and the “inhibition of ShB-IR currents” value [2] is listed as 15%.
